Measurements as given in PMC7612376, “Structural basis of meiotic chromosome synaptic elongation through hierarchical fibrous assembly of SYCE2-TEX12” (Nature structural & molecular biology, 2021).

B1: SYCE2 core (amino-acids 57-165) (domain or fragment, human, UniProt Q6PIF2 57-165, looked up)
chain: GLYFSSLDSSIDILQKRAQELIENINKSRQKDHALMTNFRNSLKTKVSDLTEKLEERIYQIYNDHNKIIQEKLQEFTQKMAKISHLETELKQVCHSVETVYKDLCLQPE
notes: SYCE2, human, core, residues 57-165; also called SYCE2 structural core; source: E. coli BL21 (DE3), co-expressed with TEX12, purified (Ni-NTA, amylose, ion exchange, SEC); not shown: MBP, N-terminal, cleaved

Legend:
[1] = target: T1, MBP-SYCE2 core (57-165) fusion protein (human, UniProt Q6PIF2 57-165); test: SEC-MALS; co-purified complexes at >1 mg/ml on Superdex 200 Increase 10/300 GL in 20 mM Tris pH 8.0, 150 mM KCl, 2 mM DTT; in Fig. 1 core at 200 uM and full-length at 100 uM (4 mg/ml); conditions: both partners purified
T1 construct: SYCE2, human, core, residues 57-165; also called SYCE2-TEX12 core MBP-fusion, SYCE2 chain; source: E. coli BL21 (DE3), co-expressed with TEX12, purified; not shown: MBP, N-terminal, kept
T1 sequence (looked up): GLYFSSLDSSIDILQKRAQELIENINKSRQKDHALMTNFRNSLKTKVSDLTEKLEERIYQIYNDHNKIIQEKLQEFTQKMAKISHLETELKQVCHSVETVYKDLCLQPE

[2] = target: the molecule itself; test: as above
[3] = target: T2, SYCE2 core ΔS2C (amino-acids 57-154) (human, UniProt Q6PIF2 57-154); test: as above; conditions: both partners purified
T2 construct: SYCE2, human, ΔS2C, residues 57-154; source: E. coli BL21 (DE3), co-expressed with TEX12, purified (Ni-NTA, amylose, ion exchange, SEC); not shown: MBP, N-terminal, cleaved
T2 sequence (looked up): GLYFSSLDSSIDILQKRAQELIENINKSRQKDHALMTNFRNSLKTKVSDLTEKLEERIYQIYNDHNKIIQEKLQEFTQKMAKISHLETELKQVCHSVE

[4] = target: B1; test: as above; conditions: both partners purified
[5] = target: the molecule itself; test: crystal structure; SYCE2-TEX12 core ΔCtip 2:2 complex, 33 mg/ml, 35 % MPD, 20°C; space group P21; PDB 6R17
[6] = target: T3, SYCE2 full-length (1-218) (human, UniProt Q6PIF2 1-218); test: SEC-MALS; co-purified complexes at >1 mg/ml on Superdex 200 Increase 10/300 GL in 20 mM Tris pH 8.0, 150 mM KCl, 2 mM DTT; in Fig. 1 core at 200 uM and full-length at 100 uM (4 mg/ml); conditions: both partners purified
T3 construct: SYCE2, human, full-length, residues 1-218; source: E. coli BL21 (DE3), co-expressed with TEX12, purified (Ni-NTA, amylose, ion exchange, SEC); not shown: MBP, N-terminal, cleaved
T3 sequence (looked up): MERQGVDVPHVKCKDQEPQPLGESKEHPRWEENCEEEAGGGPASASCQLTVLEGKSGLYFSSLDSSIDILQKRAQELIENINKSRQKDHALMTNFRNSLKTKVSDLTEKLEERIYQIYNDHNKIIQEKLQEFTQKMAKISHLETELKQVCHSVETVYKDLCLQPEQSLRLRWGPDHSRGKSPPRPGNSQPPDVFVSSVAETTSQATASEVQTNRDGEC

| Binder | percent of total mass as 2:2 complex (not self-associated) [2] [%] | percent of total mass as 4:4 complex [2] [%] | stoichiometry N [2] | stoichiometry N [6] | further results |
| --- | --- | --- | --- | --- | --- |
| TEX12 core ΔCtip (49-113) of the SYCE2-TEX12 core MBP-fusion proteins (domain or fragment, human, UniProt Q9BXU0 49-113, looked up, TEX12, human, core ΔCtip, residues 49-113; also called ΔCtip in the MBP-fusion complex; source: E. coli BL21 (DE3), co-expressed with MBP-SYCE2, purified) KDEALEKDLNDVSKEINLMLSTYAKLLSERAAVDASYIDEIDELFKEANAIENFLIQKREFLRQR |  |  |  |  | stoichiometry N [1]: 1 TEX12 per SYCE2 (2:2) |
| SYCE2-TEX12 core ΔS2C/ΔCtip 2:2 complex (complex, human, SYCE2, human, ΔS2C, residues 57-154; TEX12, human, core ΔCtip, residues 49-113; m3 + m10; also called ΔS2C/ΔCtip core complex; source: E. coli BL21 (DE3), co-expressed, purified (Ni-NTA, amylose, ion exchange, SEC); not shown: MBP, N-terminal, cleaved; His6, N-terminal, cleaved; copies: 2 + 2) chain 1: GLYFSSLDSSIDILQKRAQELIENINKSRQKDHALMTNFRNSLKTKVSDLTEKLEERIYQIYNDHNKIIQEKLQEFTQKMAKISHLETELKQVCHSVE chain 2: KDEALEKDLNDVSKEINLMLSTYAKLLSERAAVDASYIDEIDELFKEANAIENFLIQKREFLRQR | 86 | 14 | 2 2:2 building blocks |  |  |
| TEX12 core ΔCtip (amino-acids 49-113) (domain or fragment, human, UniProt Q9BXU0 49-113, looked up, TEX12, human, core ΔCtip, residues 49-113; source: E. coli BL21 (DE3), co-expressed with SYCE2, purified (Ni-NTA, amylose, ion exchange, SEC); not shown: His6, N-terminal, cleaved) KDEALEKDLNDVSKEINLMLSTYAKLLSERAAVDASYIDEIDELFKEANAIENFLIQKREFLRQR |  |  |  |  | stoichiometry N [3]: 1 TEX12 per SYCE2 (2:2); stoichiometry N [4]: 1 TEX12 per SYCE2 (2:2); binding result [5]: binds |
| B1 |  |  |  |  | binding result [5]: binds |
| TEX12 full-length (1-123) (natural protein, human, UniProt Q9BXU0 1-123, looked up, TEX12, human, full-length, residues 1-123; source: E. coli BL21 (DE3), co-expressed with SYCE2, purified (Ni-NTA, amylose, ion exchange, SEC); not shown: His6, N-terminal, cleaved) MMANHLVKPDNRNCKRPRELESPVPDSPQLSSLGKSDSSFSEISGLFYKDEALEKDLNDVSKEINLMLSTYAKLLSERAAVDASYIDEIDELFKEANAIENFLIQKREFLRQRFTVIANTLHR |  |  |  | 1 TEX12 per SYCE2 (2:2) |  |
| SYCE2-TEX12 full-length wild-type, 2:2 building block (complex, human, SYCE2, human, full-length, residues 1-218; TEX12, human, full-length, residues 1-123; m2 + m9; also called full-length SYCE2-TEX12; source: E. coli BL21 (DE3), co-expressed, purified (Ni-NTA, amylose, ion exchange, SEC); not shown: MBP, N-terminal, cleaved; His6, N-terminal, cleaved; copies: 2 + 2) chain 1: MERQGVDVPHVKCKDQEPQPLGESKEHPRWEENCEEEAGGGPASASCQLTVLEGKSGLYFSSLDSSIDILQKRAQELIENINKSRQKDHALMTNFRNSLKTKVSDLTEKLEERIYQIYNDHNKIIQEKLQEFTQKMAKISHLETELKQVCHSVETVYKDLCLQPEQSLRLRWGPDHSRGKSPPRPGNSQPPDVFVSSVAETTSQATASEVQTNRDGEC chain 2: MMANHLVKPDNRNCKRPRELESPVPDSPQLSSLGKSDSSFSEISGLFYKDEALEKDLNDVSKEINLMLSTYAKLLSERAAVDASYIDEIDELFKEANAIENFLIQKREFLRQRFTVIANTLHR | 12 | 18 | 2 2:2 building blocks |  |  |
| SYCE2-TEX12 full-length FFV (TEX12 F102A F109A V116A), 2:2 building block (complex, human, SYCE2, human, full-length, residues 1-218; TEX12, human, full-length, residues 1-123, with F102A, F109A and V116A; m2 + m14; source: E. coli BL21 (DE3), co-expressed, purified (Ni-NTA, amylose, ion exchange, SEC); not shown: MBP, N-terminal, cleaved; His6, N-terminal, cleaved; copies: 2 + 2) chain 1: MERQGVDVPHVKCKDQEPQPLGESKEHPRWEENCEEEAGGGPASASCQLTVLEGKSGLYFSSLDSSIDILQKRAQELIENINKSRQKDHALMTNFRNSLKTKVSDLTEKLEERIYQIYNDHNKIIQEKLQEFTQKMAKISHLETELKQVCHSVETVYKDLCLQPEQSLRLRWGPDHSRGKSPPRPGNSQPPDVFVSSVAETTSQATASEVQTNRDGEC chain 2: MMANHLVKPDNRNCKRPRELESPVPDSPQLSSLGKSDSSFSEISGLFYKDEALEKDLNDVSKEINLMLSTYAKLLSERAAVDASYIDEIDELFKEANAIENALIQKREALRQRFTAIANTLHR | 15 | 20 | 2 2:2 building blocks |  |  |
| TEX12 full-length L110E F114E I117E L121E (natural protein, human, UniProt Q9BXU0 1-123, looked up, TEX12, human, full-length, residues 1-123, with L110E, F114E, I117E and L121E; also called LFIL (full-length); source: E. coli BL21 (DE3), co-expressed with SYCE2, purified (Ni-NTA, amylose, ion exchange, SEC); not shown: His6, N-terminal, cleaved) MMANHLVKPDNRNCKRPRELESPVPDSPQLSSLGKSDSSFSEISGLFYKDEALEKDLNDVSKEINLMLSTYAKLLSERAAVDASYIDEIDELFKEANAIENFLIQKREFERQRETVEANTEHR |  |  |  | 1 TEX12 per SYCE2 (2:2) |  |
| TEX12 full-length F102A F109A V116A (natural protein, human, UniProt Q9BXU0 1-123, looked up, TEX12, human, full-length, residues 1-123, with F102A, F109A and V116A; also called FFV (full-length); source: E. coli BL21 (DE3), co-expressed with SYCE2, purified (Ni-NTA, amylose, ion exchange, SEC); not shown: His6, N-terminal, cleaved) MMANHLVKPDNRNCKRPRELESPVPDSPQLSSLGKSDSSFSEISGLFYKDEALEKDLNDVSKEINLMLSTYAKLLSERAAVDASYIDEIDELFKEANAIENALIQKREALRQRFTAIANTLHR |  |  |  | 1 TEX12 per SYCE2 (2:2) |  |
